From IntAct's records for PubMed 16339905

B1: Nephrocystin-4 (Homo sapiens), O75161-1 (parent)
chain: MNDWHRIFTQNVLVPPHPQRARQPWKESTAFQCVLKWLDGPVIRQGVLEVLSEVECHLRVSFFDVTYRHFFGRTWKTTVKPTKRPPSRIVFNEPLYFHTSLNHPHIVAVVEVVAEGKKRDGSLQTLSCGFGILRIFSNQPDSPISASQDKRLRLYHGTPRALLHPLLQDPAEQNRHMTLIENCSLQYTLKPHPALEPAFHLLPENLLVSGLQQIPGLLPAHGESGDALRKPRLQKPITGHLDDLFFTLYPSLEKFEEELLELHVQDHFQEGCGPLDGGALEILERRLRVGVHNGLGFVQRPQVVVLVPEMDVALTRSASFSRKVVSSSKTSSGSQALVLRSRLRLPEMVGHPAFAVIFQLEYVFSSPAGVDGNAASVTSLSNLACMHMVRWAVWNPLLEADSGRVTLPLQGGIQPNPSHCLVYKVPSASMSSEEVKQVESGTLRFQFSLGSEEHLDAPTEPVSGPKVERRPSRKPPTSPSSPPAPVPRVLAAPQNSPVGPGLSISQLAASPRSPTQHCLARPTSQLPHGSQASPAQAQEFPLEAGISHLEADLSQTSLVLETSIAEQLQELPFTPLHAPIVVGTQTRSSAGQPSRASMVLLQSSGFPEILDANKQPAEAVSATEPVTFNPQKEESDCLQSNEMVLQFLAFSRVAQDCRGTSWPKTVYFTFQFYRFPPATTPRLQLVQLDEAGQPSSGALTHILVPVSRDGTFDAGSPGFQLRYMVGPGFLKPGERRCFARYLAVQTLQIDVWDGDSLLLIGSAAVQMKHLLRQGRPAVQASHELEVVATEYEQDNMVVSGDMLGFGRVKPIGVHSVVKGRLHLTLANVGHPCEQKVRGCSTLPPSRSRVISNDGASRFSGGSLLTTGSSRRKHVVQAQKLADVDSELAAMLLTHARQGKGPQDVSRESDATRRRKLERMRSVRLQEAGGDLGRRGTSVLAQQSVRTQHLRDLQVIAAYRERTKAESIASLLSLAITTEHTLHATLGVAEFFEFVLKNPHNTQHTVTVEIDNPELSVIVDSQEWRDFKGAAGLHTPVEEDMFHLRGSLAPQLYLRPHETAHVPFKFQSFSAGQLAMVQASPGLSNEKGMDAVSPWKSSAVPTKHAKVLFRASGGKPIAVLCLTVELQPHVVDQVFRFYHPELSFLKKAIRLPPWHTFPGAPVGMLGEDPPVHVRCSDPNVICETQNVGPGEPRDIFLKVASGPSPEIKDFFVIIYSDRWLATPTQTWQVYLHSLQRVDVSCVAGQLTRLSLVLRGTQTVRKVRAFTSHPQELKTDPKGVFVLPPRGVQDLHVGVRPLRAGSRFVHLNLVDVDCHQLVASWLVCLCCRQPLISKAFEIMLAAGEGKGVNKRITYTNPYPSRRTFHLHSDHPELLRFREDSFQVGGGETYTIGLQFAPSQRVGEEEILIYINDHEDKNEEAFCVKVIYQ
partner: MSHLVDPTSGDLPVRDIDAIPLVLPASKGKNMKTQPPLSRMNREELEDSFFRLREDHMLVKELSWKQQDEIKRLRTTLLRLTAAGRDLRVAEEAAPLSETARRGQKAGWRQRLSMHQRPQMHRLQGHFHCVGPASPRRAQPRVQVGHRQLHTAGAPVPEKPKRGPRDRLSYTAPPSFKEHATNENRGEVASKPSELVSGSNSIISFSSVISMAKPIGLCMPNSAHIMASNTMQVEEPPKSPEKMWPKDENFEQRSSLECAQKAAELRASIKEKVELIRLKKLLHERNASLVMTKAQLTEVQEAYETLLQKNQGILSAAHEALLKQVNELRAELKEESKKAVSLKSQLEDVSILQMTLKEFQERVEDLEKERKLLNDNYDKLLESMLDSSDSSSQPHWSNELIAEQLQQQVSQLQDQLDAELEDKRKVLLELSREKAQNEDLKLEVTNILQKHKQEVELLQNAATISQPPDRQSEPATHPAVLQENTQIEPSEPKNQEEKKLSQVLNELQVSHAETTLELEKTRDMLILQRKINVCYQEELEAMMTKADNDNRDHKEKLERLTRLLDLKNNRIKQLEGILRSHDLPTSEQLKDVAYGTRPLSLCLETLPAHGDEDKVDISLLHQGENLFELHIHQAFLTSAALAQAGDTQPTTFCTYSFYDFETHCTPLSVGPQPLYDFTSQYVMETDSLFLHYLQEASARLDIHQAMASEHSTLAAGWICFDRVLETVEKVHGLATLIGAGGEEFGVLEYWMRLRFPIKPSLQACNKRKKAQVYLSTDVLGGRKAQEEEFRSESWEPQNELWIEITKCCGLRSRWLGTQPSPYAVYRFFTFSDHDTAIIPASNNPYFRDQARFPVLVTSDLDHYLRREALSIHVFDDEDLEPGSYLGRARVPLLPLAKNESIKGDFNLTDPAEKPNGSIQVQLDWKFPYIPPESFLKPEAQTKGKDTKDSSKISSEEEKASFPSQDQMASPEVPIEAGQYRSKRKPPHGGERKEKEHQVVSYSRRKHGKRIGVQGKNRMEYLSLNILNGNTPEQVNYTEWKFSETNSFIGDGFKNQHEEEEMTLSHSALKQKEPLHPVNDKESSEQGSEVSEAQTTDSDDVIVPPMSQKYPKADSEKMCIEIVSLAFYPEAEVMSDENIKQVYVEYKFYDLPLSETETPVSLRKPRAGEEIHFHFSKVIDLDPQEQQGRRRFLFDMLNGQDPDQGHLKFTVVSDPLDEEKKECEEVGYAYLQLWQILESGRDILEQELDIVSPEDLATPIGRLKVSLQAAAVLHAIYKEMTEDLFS
B2: X-linked retinitis pigmentosa GTPase regulator-interacting protein 1 (Homo sapiens), Q96KN7-1 (parent)
chain: B1 partner
partner: B1 chain

Variants of: B1
Conditions: with RPGRIP1, Q96KN7-1

effect of a mutation on the interaction	Variant
disrupting interaction	G754R

Variants of: B2
Conditions: with NPHP4, O75161-1

effect of a mutation on the interaction	Variant
disrupting interaction	G746E
with no effect	R852Q
disrupting interaction	D876G

Variants of: B2
Conditions: with NPHP4, O75161-1
Remark: another data set of the same source

effect of a mutation on the interaction	Variant
decreasing interaction	D876G
